Earlier results in patent US12514872B2, “Polycationic polymers for use in treating and detecting cancer” (Duke University, priority 2015, dated 2026).

B1: DNAse I: enzyme used in a cited PC study to treat tumor cells associated with extracellular DNA (protein, UniProt P24855 23-282, looked up)
Deoxyribonuclease-1: LKIAAFNIQTFGETKMSNATLVSYIVQILSRYDIALVQEVRDSHLTAVGKLLDNLNQDAPDTYHYVVSEPLGRNSYKERYLFVYRPDQVSAVDSYYYDDGCEPCGNDTFNREPAIVRFFSRFTEVREFAIVPLHAAPGDAVAEIDALYDVYLDVQEKWGLEDVMLMGDFNAGCSYVRPSQWSSIRLWTSPTFQWLIPDSADTTATPTHCAYDRIVVAGMLLRGAVVPDSALPFNFQAAYGLSDQLAQAISDHYPVEVMLK

Columns and labels:
[1] = system: RNA oligonucleotide coagulation-factor inhibitors (aptamers); conditions: previous work, WO2008/121354
PC tumor cell lines = conditions: in vitro
[2] = system: orthotopic xenograft pancreatic tumors

Molecule | reversal of anticoagulant activity of aptamers [1] | cell invasion, migration and adhesion (PC tumor cell lines) | tumor metastasis [2]
protamine sulfate | reverse the anticoagulant activity |  | 
B1 |  | reduced cell invasion, migration, and adhesion | reduction in tumor metastasis
